# Measured values reported in patent US20230406886A1 (DAEGU GYEONGBUK INSTITUTE OF SCIENCE AND TECHNOLOGY, published 2023).
# Numbering of substitutions follows the chain as printed.
# B1: COVID-19 therapeutic protein CTP-α1 (designed binder)
# chain: MKSELASNVYNTNITKENVQNMNEEQAKTFLDKFNHEAEDLFYQSSGLGKGDFR
# B2: COVID-19 therapeutic protein CTP-α3 (designed binder)
# chain: B1 chain with E4Q, S7E
# B3: COVID-19 therapeutic protein CTP-β3 (designed binder)
# chain: B1 chain with K2E
# B4: COVID-19 therapeutic protein CTP-β2 (designed binder)
# chain: B1 chain with K2E, N8V, V9N, N21A, M22N, N23G
# B5: COVID-19 therapeutic protein CTP-α2 (designed binder)
# chain: B1 chain with E4D
# B6: COVID-19 therapeutic protein CTP-β1 (designed binder)
# chain: B1 chain with N8V, V9N, N21A, M22N, N23G
# B7: COVID-19 therapeutic protein CTP-γ1 (designed binder)
# chain: MKASSLADNVYNTNITKENVQNMNEEQAKTFLDKFNHEAEDLFYQSSGLGKGDFR
# B8: COVID-19 therapeutic protein CTP-γ3 (designed binder)
# chain: B7 chain with S5E
# B9: COVID-19 therapeutic protein CTP-γ2 (designed binder)
# chain: B7 chain with A3E
# Molecular target: SARS-CoV2 spike protein S1 receptor binding domain (RBD) (SARS-CoV2, UniProt P0DTC2 319-541)
row,Binder,Kd [nM]
1,GEFADKLKNELAKTEEQAKTFLDKFNHEAEDLFYQSSGLGKGDFR (designed binder) [COVID-19 therapeutic protein CTP-δ1],56.3
2,B1,37.8
3,B2,35.7
4,B3,56.4
5,B4,42.9
6,B5,50.4
7,B6,82
8,B7,47.5
9,B8,39.2
10,B9,42.8
